Experimental data taken from paper PMC3182926.

Biological target: Tri6 (Fusarium graminearum (PH-1; NRRL 31084?), UniProt Q9C1A9 1-218)
Assay: EMSA
Conditions: protein: recombinant; tags: His (pDEST17; Methods EMSA text says Tri6-HA recombinant protein); label: 32P 5' end

B1: Tri6-1 (dsDNA)
DNA 1: GGGTCTGAAAGGCCTGGCAGGCCTGACAGGAGTG
DNA 2: CACTCCTGTCAGGCCTGCCAGGCCTTTCAGACCC
binding result: no binding

B2: Tri6-2 (dsDNA)
DNA 1: CTCAGCAGGATGAACAAGGGGTCTGAAAGGCCTGGC
DNA 2: GCCAGGCCTTTCAGACCCCTTGTTCATCCTGCTGAG
binding result: no binding

B3: Tri6-3 (dsDNA)
DNA 1: GGCAGGCCTGACAGGAGTGATAAAATGTGAGAAGAG
DNA 2: CTCTTCTCACATTTTATCACTCCTGTCAGGCCTGCC
binding result: binds
